Data taken from the DeepSol protein solubility set.

Assay: soluble on expression in E. coli; label from the status in PepcDB or PDB records

## MDLTKLTFESVFGGSDVPMKPSRSEDNKTPRNRTDLEMFLKKTPLMVLEEAAKAVYQKTPTWGTVELPEGFEMTLILNEITVKGQATSKKAARQKAAVEYLRKVVEKGKHEIFFIPGTTKEEALSNIDQISDKAEELKRSTSDAVQDNDNDDSIPTSAEFPPGISPTENWVGKLQEKSQKSKLQAPIYEDSKNERTERFLVICTMCNQKTRGIRSKKKDAKNLAAWLMWKALEDGIESLESYDMVDVIENLEEAEHLLEIQDQASKIKDKHSALIDILSDKKRFSDYSMDFNVLSVSTMGIHQVLLEISFRRLVSPDPDDLEMGAEHTQTEEIMKATAEKEKLRKKNMPDSGPLVFAGHGSSAEEAKQCACKSAIIHFNTYDFTD
  soluble on expression in E. coli: not soluble

## MNRAEKREFVTWLNEAFRKSGSVIVAHYSGLTVSQMNDLRSKMSEAGGAIKVAKNRLAKIALQGTESESIVDLFSGQTLIAYSEDPITAPKVAVDFAKTNDKFVILGGSMGATSLSVDAVKSLASLPSLNELRAKLVGMISTPATRIAQVVNAPAGQVVRVIGAYAQEGKAA
  soluble on expression in E. coli: not soluble

## KERIIGDLSQPVAVRVRTLIQQMTLAEKVAQLVSESDSIPRLNLPAYNYWNECLHGVARAGEVTVFPQAINLASTWDTVLVKRVASAISTEARLKYLEIGKGLTYWSPTINMARDPRWGRNEETYGEDPHLTSRLGVAFVKGLQGDHPTYLKTVATIKHFVANNEENNRFSSSSQIPTKQLYEYYFPAYEACVKEANAQSVMTAYNAFNGVPPSGSHWLLDDVLRKEWGFDGFVVSDCGAIGVMNWQHRVVNSLEEAAALGVNSGCDLECGTTYKEKLVQAVEQGLISEAAIDRALTRVLTARFKLGEFDPMELVPYNHYDKKLLA
  soluble on expression in E. coli: not soluble

## MTPIHVVGIGLDGLPGLAAAVQQIIDSATLLVGSDRHLQLIPQGDTPRLSLGNFNASLKAIQTHLDTTANPQVVILTSGDPLFYGLGRWLLEVFAPDQLTFHPHLSAVQLAFSRLKLPWQDAVIYSAHGRDLAGLVPLLQRGVEKIAIYTDGEANIAAISRLYQALHIPVTYRAWVCQALGSAEEAILPWDLAQPVTALPPVHPLNLVVLLRQPQRLPPREQPIVGLGDDQFFTFADRPSLMTKREVRVLVLAELALTSTVEIVWDIGAGTGSVAVEIARLAPQATIYAIEKTAIGFQLIERNRRAFGLANLIPLQGTAPQCLRDLPPPDRVFIGGSGAQLLANLDYCWSHLNAGGRLVLAIATLEHQGQVLHWCQTHQINPQVLQVQLSRSVPLGQGHRLHPLNPVTLMTLTQGLEHHHHHH
  soluble on expression in E. coli: not soluble

## MSGVASGKTAIKSTAKVLSFVVQKHWATRLHYDFRLELEGTMKSWAVPKGPSFDPNDKRMAVHVEDHPISYNSFEGEIPSGQYGAGKVIIWDKGTWIPLEDPHKGYRDGKLKFELRGLKLKGHWALVRMRKEENKKQEPWLLIKEKDEYVRSSREYSVVDEMPDSVAELEHHHHHH
  soluble on expression in E. coli: not soluble

## MGSDKIHHHHHHMFLDDFHTVTDDRLCITAEQASRFAKCIAGDYNPIHDPDARRFCVPGDLLFALVMARFGLAQRMTFHFKGMVGDSVPLCFAQHGDTVSVTDHHGKVYLEVERGGDITHDAGVIEAFTRRYVAFSGRNFPHYLKPLMEEQGVMFNPQRPLVIYDSMGFSLSRLDVAEAGVAFTGATLDVTGKRGDALLQFQMTDADTVIGHGSKKLVVSGLREYDPPVMDAFVEQFMSLKAHSATTG
  soluble on expression in E. coli: not soluble

## MDNKIVYVVSDSVGETADLVVRAAMGQFPFAPDIRRVPYVEDTGTLKEVISIAKSNQALICFTLVKPDMRQYLVTEAAKEGVEAYDIIGPLIDQIEEITGQVPRYEPGVVRRLDEEYFKKIEAIEFAVKYDDGRDARGILKADIVLIGVSRTSKTPLSQYLAHNKRLKVANVPLVPEVDPPEELYQVAKEKCFGLKITPDKLNHIRKERLKSLGLSDGATYANINRIQEEIDHFEEVISRINCQVIDVSNKAIEETANIIVNAVQNQKMF
  soluble on expression in E. coli: not soluble

## DIRPSKLLTWCQQQTEGYQHVNVTDLTTSWRSGLALCAIIHRFRPELINFDSLNEDDAVENNQLAFDVAEREFGIPPVTTGKEMASAQEPDKLSMVMYLSKFYELFRGTPLRPV
  soluble on expression in E. coli: soluble
